Results as given in the RNAGym collection of RNA variant scans (doi:10.1073/pnas.2313332121).

B1: TPR t1 (parent)
chain: GACCAAUCUGCCCUCAGAGCUCGAGAACAUCUUCGGAUGCAGAGGAGGCAGGCUUCGGUGGCGCGAUAGCGCCAACGUCCUCAACCUCCAAUGCAUCCCACCACAUGAUGAUGCCUGAAGAGCCUUGGUUUUUUG

Variants of: B1
Experiment: polymerase ribozyme fitness, log enrichment relative to wild type (log ratio); higher = more active; in vitro selection for triplet polymerase activity
In short: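 Genotype fitness is the logarithm of its enrichment divided by wild-type enrichment, using inverse-variance-weighted averages of replicates. That logarithm is base 2. Enrichment was measured by Illumina sequencing of input and output libraries from one triplicate in vitro selection round, with frozen incubation at −7 °C, on PCR-built, transcribed mutant libraries of each subunit of a heterodimeric triplet polymerase ribozyme, retaining genotypes with ≥10 input reads and ≥1 read per output.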

Variant	polymerase ribozyme fitness (log ratio)
U7C A43U C72G A90G C124A U125G U133C	-0.0724
A6G G63U C73G C102A G110U C115G	-6.75
U7A C53U C70U	-0.899
U7C C11G C82U	0.131
U7G G77A A83C	0.167
A6U C11G U112A U126A	1.81
C8A A91C G117C	-2.17
U7C C11U G69C	-1
A6U C40U C123A	0.808
U7C C11U C73U G93U	-1.53
A6G U54C A66G C80U	-2.2
U7G G60U	-0.565
U7A C8G A16C A46U	-0.61
U7G C88U A119G	1.51
U7G C104A C123G G128C	-3.67
A6U C98U U112G	-3.5
U7G A16C G42A	-4.17
A6U C12A G48U U106G	-1.45
U7C C62U G120A G128A	0.578
U7G C72U C115U	0.671
U7C A16C G52C G110A U130A	-5.74
A6U U14A C86A U96A	-6.24
A6U A18U G93C C102U	-6.29
U7A C104G	-6.47

Variant	polymerase ribozyme fitness (log ratio)
U7G G110C C124A	-4.31
A6U U54A	-0.507
A6U C115U	-1.06
A6U G113U	-2.09
U7G C8U C70G	-1.52
U7G G47U G113C	-2.84
C8A C11A C82A G93A	-0.542
A6U C13G C56U G77C	-1.6
A6G G61C C79A U112G C114U	-6.62
C8A A100C	-0.0614
U7C C11G A100C G120A	1.21
A6U G39A A74C A91U	-2.33
U7A A74G	-0.408
U7C C13A C72G U92C	-2.47
U7C C12U C22U G63A	-4.58
U7G C56A G57A G93U	-1.03
A6U C8G C34U C53U C82U A84C	-4.3
U7A C12G C89G A111C	-2.35
A6U C49U C53U A84C	-0.896
A6U G120U	-0.0286
A6U G120C	1.12
U7A G69U C98U	-0.115
U7G A111U	-1.87
A6U G10U C12U C15G C72G C86A	-3.18

Variant	polymerase ribozyme fitness (log ratio)
C8A C11A C22A U32G U33C C34A C40G C72U A100U C115U	-6.9
U7C A66C G77C C88A	-2.34
A6U C15A G51C G71U C124U	-5.41
U7C U14G G48U C70G	-5.7
A6U C72U C76G C98U	-1.11
U7G C28G U106A	-1.02
A6U C11A C62G G120A	-2.04
U7G A84U G127A	-0.135
U7G A46U G93U	-2.2
A6G G47A C53U U59C	-1.37
U7G G71C	-0.641
U7A G35C A41C C64U C79U G113U	-7.12
U7G G63C	-0.0723
U7C G61A U81G U116G C124A	-2.26
U7C C11G C62A U96G	-1.18
U7A C73G U129G	-2.6
U7A G52A A111C	0.419
A6U C20U U21G G69C A121U	-0.95
A6U C22U	-3.04
U7A C12A A90G	-0.303
U7A G48A A50G G77A C101U U109A	-5.13
U7A G63C U81G	-4.09
A6U U7G C8G C56A G63A	-2.06
U7A C13G U32C U38G	-1.31

Variant	polymerase ribozyme fitness (log ratio)
A6G G48C C72A	0.333
C8A A111U	-1.79
C8A A111C	0.0486
C8A A18C C22G	-4.25
U7A G60U	0.564
C8A A18C U38G G61C C94U G110U C123U	-7.38
C8A A83C A100C	-0.702
U7C C56U C72U U130G	-0.275
U7A C123G	2.34
U7G C8A G44A C123A	1.17
C8A A43C C70G	-6.43
U7G C12G G58A C72U	0.394
A6U G10C C12A U87A	-0.928
A6U C56G G110U	-1.25
U7G A50U C64U G117C	-4.92
U7C A74G G110A A118U	-0.453
U7C U9G A26G	-1.4
U7A C15U C56A G69U U106G G120C	-0.793
U7G C12U C15A C22G C104U	-3.41
U7G U54A C102A U112A U131A	-0.106
U7A G60U C104A U125A	-1.13
C8A A46U	-1.5
A6U C53U G61C G77C C104A	-2.75
A6U C13A C22G A75U	-4.17

Variant	polymerase ribozyme fitness (log ratio)
A6U A37U U112A U130A	0.657
A6U U9C U55C A75G A95C G110A	-1.37
U7C C56A G135U	-1.85
U7A C13G G63U G93A C102G C115U A121G	-7.01
U7C C12G	0.687
U7C C12A	-0.242
U7C C20U C62A A83C A119G	-1.83
U7A A50U C64U	-0.349
A6U G63C C80A	-3.25
C8A A26U C94U C124G U125G G127U	-0.974
U7C C34U C49A A50C	-5.35
A6U G47A C70U C94U	-1.74
A6U G63C C80U G93C U106A	-3.58
U7C A50U C82U	-0.98
U7A C8A G19U C97G A105G C124U	-7.51
U7A C22A C40G A68U A84C G110C	-6.51
U7G C73U U78A	0.634
A6U C11U U55G A83U U106A G128U U130C	-1.47
U7C G17A G63U A121C	-1.33
U7G U96C	-0.0298
U7C C11A G45C G58A	-0.0271
A6G G19A A43U C123A G128A	-5.55
C8A A41U G69U C86A	-0.0176
U7C C72G A84C	-0.576

Variant	polymerase ribozyme fitness (log ratio)
A6U C49G C62A U78C C88A A119U	-3.67
U7C A74C	0.236
U7G C98U	-0.713
A6U C53U	0.192
A6U G17C	-4.25
U7C G10C A83C C115U	-1.32
A6U G44A	-1.02
A6U G44U	-1.52
C8A A29U G63A C88U A91U C123U	-3.81
A6G U21C G61C C114A	-3.62
U7A A37U U78A	0.116
U7G C34U G69U C102U U106A	-0.632
U7A C56G U92C	-1.74
A6U C11U C28U C34A C73A G110A	0.315
U7A G63A C89U	-1.1
U7G G51C	-2.99
U7A C11A U81A	-1.32
U7A G61A C73A C104G U109C	-6.61
A6U C11G	0.392
A6G G48A G69A U129G	-5.25
U7G C8U A29U C40A G48A	-2.66
U7C G47A G69U C72A C102G	-4.77
A6U C8G G44U C49A C72A G77U G120C U130G	-1.84
U7A G19U C73G U92A	-4.76

Variant	polymerase ribozyme fitness (log ratio)
U7A G45U C56G A66G	-3.29
U7A A43U	-1.13
A6U G17U U112A G120A	-3.9
U7G A29U G42A C53U C62U	-3.19
U7A U14A C86U A90U	-3.61
A6U G23U	-4.65
A6U C12U C72U A83C G127U	-0.0511
C8A A41U G61A C86A	-1.24
U7G C22G A24G G48U	-5.74
A6U G42C C73G	-2.29
U7G U9A G120C	1.99
U7A A66G U87C C94U G110U	-2.5
A6U G58C G63U C64A A119U	-6.07
U7C C70U C101G	-2.79
U7C G107A U109A	-4.11
A6U G19A	-2.37
A6U C40A G60U A105C	-4.4
U7G C72U G93C C115U	0.15
U7G A18U	-0.713
U7C C28G G61U	-3.14
A6U G44A A50U C94G	-4.1
A6U	0.173
A6G U7G A18C G52U U81A C115G	-4.51
